For 1 molecule, concentration and EC50 results are on record in patent US20230056230A1.

Assay [1] addresses PD-1 and LAG-3 on CD4+ and CD8+ cells of patients' peripheral blood. The experiment in a line: receptor occupancy by flow cytometry on patients' whole blood, CD8+ cells; Emax model.
Assay [2] shares this target. The experiment in a line: receptor occupancy by flow cytometry on patients' whole blood, CD4+ cells; Emax model of % binding against DART-I concentration.
Assay [3] has the same target. The experiment in a line: receptor occupancy by flow cytometry on patients' whole blood, CD4+ cells; Emax model.
For assay [4] the target is unchanged. The assay is described as follows: receptor occupancy by flow cytometry on patients' whole blood, CD8+ cells; Emax model of % binding against DART-I concentration.

B1: DART-I (bispecific antibody, human IgG4 S228P)
chain 1: DIQMTQSPSSLSASVGDRVTITCRASQDVSSVVAWYQQKPGKAPKLLIYSASYRYTGVPSRFSGSGSGTDFTLTISSLQPEDFATYYCQQHYSTPWTFGGGTKLEIKGGGSGGGGQVQLVQSGAEVKKPGASVKVSCKASGYSFTSYWMNWVRQAPGQGLEWIGVIHPSDSETWLDQKFKDRVTITVDKSTSTAYMELSSLRSEDTAVYYCAREHYGTSPFAYWGQGTLVTVSSGGCGGGEVAACEKEVAALEKEVAALEKEVAALEKESKYGPPCPPCPAPEFLGGPSVFLFPPKPKDTLYITREPEVTCVVVDVSQEDPEVQFNWYVDGVEVHNAKTKPREEQFNSTYRVVSVLTVLHQDWLNGKEYKCKVSNKGLPSSIEKTISKAKGQPREPQVYTLPPSQEEMTKNQVSLTCLVKGFYPSDIAVEWESNGQPENNYKTTPPVLDSDGSFFLYSRLTVDKSRWQEGNVFSCSVMHEALHNHYTQKSLSLSLG
chain 2: EIVLTQSPATLSLSPGERATLSCRASESVDNYGMSFMNWFQQKPGQPPKLLIHAASNQGSGVPSRFSGSGSGTDFTLTISSLEPEDFAVYFCQQSKEVPYTFGGGTKVEIKGGGSGGGGQVQLVQSGAEVKKPGASVKVSCKASGYTFTDYNMDWVRQAPGQGLEWMGDINPDNGVTIYNQKFEGRVTMTTDTSTSTAYMELRSLRSDDTAVYYCAREADYFYFDYWGQGTTLTVSSGGCGGGKVAACKEKVAALKEKVAALKEKVAALKE
Consider B1, for which the concentration at which 90% of max RO is achieved amounted to 0.1 µg/mL in assay [1] and 0.6 µg/mL in assay [3]. The figures for the EC50 in assay [2] and in assay [4] were 0.045 µg/mL and 0.011 µg/mL, respectively.
